This note sets out measurements from US20260109782A1 (Chugai, published 2026).

Substitutions are numbered along the chain they refer to. Names and notes keep the numbering of the source. Where only a bound is given, the exact number is not on record here.

B1: A44/B26 (bispecific antibody, V domains shown)
VH 1: MQVQLQQSGAELAKPGASVKLSCKASGYTFTSSWMHWIKQRPGQGLEWLGYINPSSGYTKYNRKFRDKATLTADKSSSTAYMQLTSLTYEDSAVYYCARGGNGYYFDYWGQGTTLTVSS
VL 1: DIVMTQSHKFMSTSVGDRVSITCKASQDVGTAVAWYQQKPGQSPKLLIYWASTRHTGVPDRFTGSRYGTDFTLTISNVQSEDLADYLCQQYSNYITFGGGTKLELKR
VH 2: MQVQLQQSGPELVKPGASVKISCKASGYTFTDNNMDWVKQSHGKGLEWIGDINTKSGGSIYNQKFKGKATLTIDKSSSTAYMELRSLTSEDTAVYYCARRRSYGYYFDYWGQGTTLTVSS
VL 2: DIVLTQSQKFMSTSVGDRVSITCKASQNVGTAVAWYQQKPGQSPKALIYSASYRYSGVPDRFTGSGSGTDFTLTISNVQSEDLAEYFCQQYNSYPLTFGAGTKLEIKR
B2: chimeric bispecific antibody (A69/B26/BBA) (bispecific antibody, V domains shown)
VH 1: MEVQLQQSGAELVKPGASVKLSCTASGFNIKDYYMHWIKQRPGQGLEWLGYINPSSGYTKYNRKFRDKATLTADKSSSTAYMQLTSLTYEDSAVYYCARGGNGYYLDYWGQGTTLTVSS
VH 2: B1 VH 2
VL: B1 VL 1 with D28N, W50S, T53Y, H55Y, T56S
B3: bispecific antibody of A69H, B26H and hybrid L chain BBa (bispecific antibody, V domains shown)
VH 1: B2 VH 1
VH 2: B1 VH 2
VL: B1 VL 1 with V15I, D28N, W50S, T53Y, H55Y, T56S, N93S, I95L
B4: commonly shared L chain antibody of A44 H chain, B26 H chain and hybrid L chain ABA(G) (bispecific antibody, V domains shown)
VH 1: B1 VH 1
VH 2: B1 VH 2
VL: DIVMTQSHKFMSTSVGDRVSITCKASQDVGTAVAWYQQKPGQSPKLLIYSASYRYSGVPDRFTGSRYGTDFTLTISNVQSEDLADYLCQQYSNYITFGGGTKLELKRG
B5: commonly shared L chain antibody of A44 H chain, B26 H chain and hybrid L chain BBA(G) (bispecific antibody, V domains shown)
VH 1: B1 VH 1
VH 2: B1 VH 2
VL: B4 VL with D28N

The target in one test is coagulation factor IX / activated coagulation factor IX (human) (UniProt P00740). The test can be described thus: cell-based or functional assay.
coagulation factor IX / activated coagulation factor IX (human), sequence (P00740 47-461): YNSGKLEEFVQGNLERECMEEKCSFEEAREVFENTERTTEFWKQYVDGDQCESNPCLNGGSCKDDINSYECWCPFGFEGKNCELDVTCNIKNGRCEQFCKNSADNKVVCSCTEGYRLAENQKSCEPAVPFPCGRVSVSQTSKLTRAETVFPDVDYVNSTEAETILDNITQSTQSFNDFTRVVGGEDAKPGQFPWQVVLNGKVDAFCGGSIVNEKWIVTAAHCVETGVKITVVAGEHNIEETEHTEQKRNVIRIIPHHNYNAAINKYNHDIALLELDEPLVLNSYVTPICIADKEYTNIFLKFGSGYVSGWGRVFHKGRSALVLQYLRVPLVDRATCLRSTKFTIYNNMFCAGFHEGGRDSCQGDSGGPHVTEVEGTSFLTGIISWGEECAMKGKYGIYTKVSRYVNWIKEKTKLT
The molecule B1 came in with a reduction of coagulation time against no antibody of over 50 s.

For a further test, the target named is human Factor X (Enzyme Research Laboratories, Inc.) (human, UniProt P00742 41-488). The test can be described thus: cell-based or functional assay.
human Factor X (Enzyme Research Laboratories, Inc.), sequence (P00742 other isoform, or with tags, fused parts or gaps limits assumed): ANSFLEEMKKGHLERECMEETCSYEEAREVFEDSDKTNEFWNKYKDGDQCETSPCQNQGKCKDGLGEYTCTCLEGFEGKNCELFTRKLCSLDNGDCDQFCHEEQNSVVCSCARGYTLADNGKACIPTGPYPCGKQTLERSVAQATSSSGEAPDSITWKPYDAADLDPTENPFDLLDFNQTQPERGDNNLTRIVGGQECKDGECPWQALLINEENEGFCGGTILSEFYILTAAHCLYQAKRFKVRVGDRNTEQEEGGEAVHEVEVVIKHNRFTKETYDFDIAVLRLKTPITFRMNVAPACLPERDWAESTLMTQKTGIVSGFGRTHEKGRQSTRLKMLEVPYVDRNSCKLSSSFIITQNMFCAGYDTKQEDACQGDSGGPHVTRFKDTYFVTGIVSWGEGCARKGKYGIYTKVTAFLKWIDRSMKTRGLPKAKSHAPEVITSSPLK
Take B2: the “reduction of coagulation time against no antibody” value (from here on “reduction … against no antibody”) was at least 80 s.
With B1, the “reduction … against no antibody” value is at least 50 s.
With B3, the “reduction … against no antibody” value was at least 80 s.
The same measure, in the same setting: the result for B4 reads at least 60 s.

In another test the target is coagulation factor IX / activated coagulation factor IX (human), P00740. The test can be described thus: cell-based or functional assay.
coagulation factor IX / activated coagulation factor IX (human), P00740, sequence (P00740 47-461): as the sequence (P00740 47-461) above
With B5, the reduction of coagulation time against no antibody is over 70 s.
Molecule B2 showed a reduction of coagulation time against no antibody of over 80 s.
On the same count and under the same terms, the result for B3 reads over 80 s.
B4 registered a reduction of coagulation time against no antibody of over 60 s.
